Results on one protein are retold here after PMC4692482, “Structure and Stability of the Dimeric Triosephosphate Isomerase from the Thermophilic Archaeon Thermoplasma acidophilum” (PLoS ONE, 2015).

The data set deals with the molecule itself. The data set is described as follows: AUC; equilibrium sedimentation, 20 mM Tris-HCl pH 7.5, 200 mM NaCl, 20°C, 20,000 and 26,000 rpm, 12.6, 16.8 and 21.0 uM protein; data fit a homogeneous dimer model; reversible monomer-dimer and monomer-trimer models rejected.

B1: triosephosphate isomerase from Thermoplasma acidophilum (enzyme, UniProt Q9HLB6 1-216, looked up)
chain: MYTAIVNLKTYREATGANFTRFMEKFEPVQGKFELIFSPSLLDLEKAAKCGKFRFFAQHVDAEPYGAYTGHVPMDMMIDLGITGSILNHSERRLPRDTIINTLKKASKLDFTIVLCVENAEEAKYFREYEPDFIAYEPRDLIGGDVSVSTAKPEIIEDIVKIYEGTGTSVLVGAGIKTGEDVRRSIGLGARGILVASGVVKSADPTKSLNSLIELK
notes: Cloned into pET-28a(+) with a C-terminal His6-tag; no tag removal is described; The monomer mass used for AUC is 24,671 daltons; The crystals with glycerol-3-phosphate (G3P) hold the same protein; also called TaTPI; apo-TaTPI; source: E. coli Rosetta 2(DE3)pLysS, purified (heat step 60°C, HiTrap Chelating, SEC, anion exchange, SEC)
Usually stoichiometry N stands for the number of molecules, sites or subunits per partner or assembly. B1: the “stoichiometry N” value amounted to 2.
